Results as given in patent publication US20060257938A1, “Method of screening for drugs that block ligand binding to a lipid binding protein” (priority 2005, published 2006).
Several values for one entry are separate records, joined by “and”; a condition that tells them apart may be missing. Equal entries are not always repeated.

What was measured:
Type in all cases: binding
[1] = Probe fluorescence ratio response to palmitic acid relative to ADIFAB2; conditions: response relative to ADIFAB2
In short: (§1)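 Each fatty acid's response was expressed relative to ADIFAB2, the rI-FABP-L72A probe, as ΔR/ΔRreference. ΔR is the change in the background-corrected two-wavelength intensity ratio R=Fλ1/Fλ2 from its analyte-free baseline R0. Emission was read near about 420-480 nm for unbound and about 495-580 nm for FFA-bound probe.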

[2] = Probe fluorescence ratio response to linoleic acid relative to ADIFAB2; conditions: response relative to ADIFAB2
In short: as §1

[3] = Probe fluorescence ratio response to arachidonic acid relative to ADIFAB2; conditions: response relative to ADIFAB2
In short: as §1

[4] = Response profile of probe to fatty acids (Table 2)
[5] = Probe fluorescence ratio response to oleic acid relative to ADIFAB2; conditions: response relative to ADIFAB2
In short: as §1

[6] = Probe fluorescence ratio response to linolenic acid relative to ADIFAB2; conditions: response relative to ADIFAB2
In short: as §1

[7] = Probe fluorescence ratio response to stearic acid relative to ADIFAB2; conditions: response relative to ADIFAB2
In short: as §1

[8] = Probe fluorescence ratio response to palmitoleic acid relative to ADIFAB2; conditions: response relative to ADIFAB2
In short: as §1

[9] = Probe fluorescence intensity change with UCB:BSA

| Molecule | DR/DR PA [1] | DR/DR LA [2] | DR/DR AA ([3]; Arachidonic acid) | DR/DR AA ([3]; arachidonic acid) | response profile [4] | DR/DR OA [5] | DR/DR LNA [6] | DR/DR SA [7] | DR/DR POA [8] | ΔI/Io 1:1 UCB:BSA 440 nm [9] | ΔI/Io 1:1 UCB:BSA 500 nm [9] | ΔI/Io 1:2 UCB:BSA 440 nm [9] | ΔI/Io 1:2 UCB:BSA 500 nm [9] |
| --- | --- | --- | --- | --- | --- | --- | --- | --- | --- | --- | --- | --- | --- |
| 72F (protein, listed as Rattus norvegicus, PEPTIDE (1)...(131) wild-type rat intestinal fatty acid binding protein) AFDGTWKVDRNENYEKFMEKMGINVVKRKLGAHDNLKLTITQEGNKFTVKESSNFRNIDVVFELGVDFAYSFADGTELTGTWTMEGNKLVGKFKRVDNGKELIAVREISGNELIQTYTYEGVEAKRIFKKE | 0.46 and 0.456 | 0.61 and 0.612 | 0.40 | 0.401 | AA lowest | 0.57 and 0.571 | 0.59 and 0.592 | – | – | – | – | – | – |
| 72S 73P 74I (protein, listed as Rattus norvegicus, PEPTIDE (1)...(131) wild-type rat intestinal fatty acid binding protein) AFDGTWKVDRNENYEKFMEKMGINVVKRKLGAHDNLKLTITQEGNKFTVKESSNFRNIDVVFELGVDFAYSSPIGTELTGTWTMEGNKLVGKFKRVDNGKELIAVREISGNELIQTYTYEGVEAKRIFKKE | 2.210 | 2.792 | – | 2.154 | Favors POA and LNA | 2.162 | 3.091 | 1.337 | 3.155 | – | – | – | – |
| 18I 31F 72A (protein, listed as Rattus norvegicus, PEPTIDE (1)...(131) wild-type rat intestinal fatty acid binding protein) AFDGTWKVDRNENYEKFIEKMGINVVKRKLFAHDNLKLTITQEGNKFTVKESSNFRNIDVVFELGVDFAYSAADGTELTGTWTMEGNKLVGKFKRVDNGKELIAVREISGNELIQTYTYEGVEAKRIFKKE | 2.037 | 2.707 | – | 2.043 | Favors LNA | 1.761 | 3.027 | 0.950 | 2.659 | – | – | – | – |
| 21W 72A (protein, listed as Rattus norvegicus, PEPTIDE (1)...(131) wild-type rat intestinal fatty acid binding protein) AFDGTWKVDRNENYEKFMEKWGINVVKRKLGAHDNLKLTITQEGNKFTVKESSNFRNIDVVFELGVDFAYSAADGTELTGTWTMEGNKLVGKFKRVDNGKELIAVREISGNELIQTYTYEGVEAKRIFKKE | 1.637 | 2.551 | – | 3.829 | Large Response, Favors AA | 2.808 | 2.550 | 1.946 | 2.120 | – | – | – | – |
| L2P22 B1: FABP probe, mutations 18Y 31V 55V 72A vs SEQ ID NO: 2 (protein, listed as Rattus norvegicus, PEPTIDE (1)...(131) wild-type rat intestinal fatty acid binding protein) AFDGTWKVDRNENYEKFYEKMGINVVKRKLVAHDNLKLTITQEGNKFTVKESSNVRNIDVVFELGVDFAYSAADGTELTGTWTMEGNKLVGKFKRVDNGKELIAVREISGNELIQTYTYEGVEAKRIFKKE | – | – | – | – | – | – | – | – | – | −0.70 | −0.68 | −0.36 | −0.35 |
| L1P1 C12: FABP probe, mutations 38I 72W 117W vs SEQ ID NO: 2 (protein, listed as Rattus norvegicus, PEPTIDE (1)...(131) wild-type rat intestinal fatty acid binding protein) AFDGTWKVDRNENYEKFMEKMGINVVKRKLGAHDNLKITITQEGNKFTVKESSNFRNIDVVFELGVDFAYSWADGTELTGTWTMEGNKLVGKFKRVDNGKELIAVREISGNELIQTWTYEGVEAKRIFKKE | – | – | – | – | – | – | – | – | – | −0.92 | −0.86 | −0.86 | −0.79 |
| 72T 73W 74G (protein, listed as Rattus norvegicus, PEPTIDE (1)...(131) wild-type rat intestinal fatty acid binding protein) AFDGTWKVDRNENYEKFMEKMGINVVKRKLGAHDNLKLTITQEGNKFTVKESSNFRNIDVVFELGVDFAYSTWGGTELTGTWTMEGNKLVGKFKRVDNGKELIAVREISGNELIQTYTYEGVEAKRIFKKE | 1.817 | 1.348 | – | 0.687 | SA and AA lowest | 0.822 | 1.702 | 0.305 | 2.770 | – | – | – | – |
| 119M, 72A (protein, listed as Rattus norvegicus, PEPTIDE (1)...(131) wild-type rat intestinal fatty acid binding protein) AFDGTWKVDRNENYEKFMEKMGINVVKRKLGAHDNLKLTITQEGNKFTVKESSNFRNIDVVFELGVDFAYSAADGTELTGTWTMEGNKLVGKFKRVDNGKELIAVREISGNELIQTYTMEGVEAKRIFKKE | 0.722 | 1.184 | – | 1.087 | Favors LNA | 1.191 | 2.280 | – | – | – | – | – | – |
| 38Y 18L 73V 72A (protein, listed as Rattus norvegicus, PEPTIDE (1)...(131) wild-type rat intestinal fatty acid binding protein) AFDGTWKVDRNENYEKFLEKMGINVVKRKLGAHDNLKYTITQEGNKFTVKESSNFRNIDVVFELGVDFAYSAVDGTELTGTWTMEGNKLVGKFKRVDNGKELIAVREISGNELIQTYTYEGVEAKRIFKKE | 0.067 | 0.034 | – | 1.172 | AA and SA | 0.235 | 0.133 | 0.824 | 0.023 | – | – | – | – |
| L5P16 H4: FABP probe, mutations 126K 73F 72A vs SEQ ID NO: 2 (protein, listed as Rattus norvegicus, PEPTIDE (1)...(131) wild-type rat intestinal fatty acid binding protein) AFDGTWKVDRNENYEKFMEKMGINVVKRKLGAHDNLKLTITQEGNKFTVKESSNFRNIDVVFELGVDFAYSAFDGTELTGTWTMEGNKLVGKFKRVDNGKELIAVREISGNELIQTYTYEGVEAKKIFKKE | – | – | – | – | – | – | – | – | – | −0.69 | −0.64 | −0.37 | −0.31 |
| 72H 73P 74L (protein, listed as Rattus norvegicus, PEPTIDE (1)...(131) wild-type rat intestinal fatty acid binding protein) AFDGTWKVDRNENYEKFMEKMGINVVKRKLGAHDNLKLTITQEGNKFTVKESSNFRNIDVVFELGVDFAYSHPLGTELTGTWTMEGNKLVGKFKRVDNGKELIAVREISGNELIQTYTYEGVEAKRIFKKE | 5.260 | 5.429 | – | 4.597 | Large Response, Favors | 3.919 | 6.352 | 1.474 | 7.165 | – | – | – | – |
| L1P1 B4: FABP probe, mutations 14I 72W 117W vs SEQ ID NO: 2 (protein, listed as Rattus norvegicus, PEPTIDE (1)...(131) wild-type rat intestinal fatty acid binding protein) AFDGTWKVDRNENIEKFMEKMGINVVKRKLGAHDNLKLTITQEGNKFTVKESSNFRNIDVVFELGVDFAYSWADGTELTGTWTMEGNKLVGKFKRVDNGKELIAVREISGNELIQTWTYEGVEAKRIFKKE | – | – | – | – | – | – | – | – | – | −0.66 | −0.64 | −0.36 | −0.35 |
| 38Y 62W 117A 72A (protein, listed as Rattus norvegicus, PEPTIDE (1)...(131) wild-type rat intestinal fatty acid binding protein) AFDGTWKVDRNENYEKFMEKMGINVVKRKLGAHDNLKYTITQEGNKFTVKESSNFRNIDVVWELGVDFAYSAADGTELTGTWTMEGNKLVGKFKRVDNGKELIAVREISGNELIQTATYEGVEAKRIFKKE | 0.316 | 1.848 | – | 2.353 | Favors AA | 1.896 | 1.237 | 0.854 | 0.272 | – | – | – | – |
| L1P5 H9: FABP probe, mutations 14M 72I 117W vs SEQ ID NO: 2 (protein, listed as Rattus norvegicus, PEPTIDE (1)...(131) wild-type rat intestinal fatty acid binding protein) AFDGTWKVDRNENMEKFMEKMGINVVKRKLGAHDNLKLTITQEGNKFTVKESSNFRNIDVVFELGVDFAYSIADGTELTGTWTMEGNKLVGKFKRVDNGKELIAVREISGNELIQTWTYEGVEAKRIFKKE | – | – | – | – | – | – | – | – | – | −0.58 | −0.63 | −0.34 | −0.34 |
